Laboratory results taken from patent US20260274980A1 (BIOARCTIC, published 2026).
Changes are numbered by the printed parent chain.

How the values were obtained:
[1] = biological target: T1, truncated hTfR1 of SEQ ID NO:86 (human, UniProt P02786 122-760); assay: SPR (Biacore 8K), single-cycle kinetics on immobilised hTfR1 (SEQ ID NO:86), as in Example 12 [column VH first, row Human TfR1]
T1 construct: Given only as 'truncated hTfR1'; amine-coupled to a CM5 chip for SPR; also called human TfR1

[2] = biological target: T2, truncated cTfR1 of SEQ ID NO:87 (cynomolgus, UniProt Q5RDH6 122-760 (Pongo abelii entry), limits assumed); assay: SPR (Biacore 8K), single-cycle kinetics on immobilised cTfR1 (SEQ ID NO:87), as in Example 12 [column VH first, row Cynomolgus TfR1]
T2 construct: Printed only as 'truncated cTfR1'; amine-coupled to a CM5 chip for SPR; also called cynomolgus TfR1
T2 chain: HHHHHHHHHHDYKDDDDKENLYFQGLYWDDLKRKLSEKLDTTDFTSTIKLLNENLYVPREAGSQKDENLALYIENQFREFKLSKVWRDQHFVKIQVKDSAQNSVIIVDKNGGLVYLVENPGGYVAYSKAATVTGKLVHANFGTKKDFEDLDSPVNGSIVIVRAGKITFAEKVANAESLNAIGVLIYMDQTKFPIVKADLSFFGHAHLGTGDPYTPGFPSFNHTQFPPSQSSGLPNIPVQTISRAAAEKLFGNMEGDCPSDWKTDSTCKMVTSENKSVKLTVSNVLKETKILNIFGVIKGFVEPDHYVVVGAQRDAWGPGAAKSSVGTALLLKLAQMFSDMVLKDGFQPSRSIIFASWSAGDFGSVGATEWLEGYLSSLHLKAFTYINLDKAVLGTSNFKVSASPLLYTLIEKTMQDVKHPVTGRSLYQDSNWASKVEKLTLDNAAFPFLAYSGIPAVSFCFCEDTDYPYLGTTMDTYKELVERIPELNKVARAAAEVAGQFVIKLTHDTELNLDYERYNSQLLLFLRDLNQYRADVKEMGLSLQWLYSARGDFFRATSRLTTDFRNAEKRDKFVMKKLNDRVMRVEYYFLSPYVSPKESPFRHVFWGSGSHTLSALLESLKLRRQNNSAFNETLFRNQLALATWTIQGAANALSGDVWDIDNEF

[3] = biological target: T2, truncated cTfR1 of SEQ ID NO:87; assay: SPR (Biacore 8K), single-cycle kinetics on immobilised cTfR1 (SEQ ID NO:87), as in Example 12 [column VL first, row Cynomolgus TfR1]
[4] = biological target: T3, human transferrin receptor 1 (hTfR1) on cell surfaces (human, UniProt P02786 1-760); assay: flow cytometry on K562 cells (hTfR1 on the surface), Fc receptors blocked, overnight at 4 °C, detection with anti-human IgG-Alexa Fluor 488
T3 construct: Endogenous receptor on hCMEC/D3, THP-1, K562 and Ramos cells; also called CD71; endogenous hTfR1
Procedure: Fcγ receptors were blocked using Fc receptor blocker (Innovex biosciences, #NB309-4X-40) for 30 min at 4° C., after which the cells were washed in PBS. […] The plate was incubated at 4° C. overnight. […] Staining was carried out for 30 min at 4° C. […] The cells were finally resuspended in 200 μl PBS with 1% BSA and acquired using a BD FACSLyric flow cytometer system (BD Biosciences). Samples were analyzed using flowJo software (BD Biosciences).

[5] = biological target: T3, human transferrin receptor 1 (hTfR1) on …; assay: flow cytometry, Ramos cells
Procedure: Binding to hTfR1 on cells was measured on the immortalized human B lymphocyte cell line Ramos (Sigma, cat: 85030802). This cell line is known for expressing high levels of hTfR1 on the cell surface. Fcγ receptors were blocked using Fc receptor blocker (Innovex biosciences, #NB309-4X-40) for 30 min at 4° C., after which the cells were washed in PBS. The cells were seeded in a 96 well V bottom plate (#249570, Thermo Scientific Nunc), and serially diluted Gen 2A constructs were added and the plate was incubated at 4° C. overnight. The cells were washed with PBS with 1% BSA and then fixed with freshly prepared 4% formaldehyde (Thermo Scientific Pierce, #28906) diluted in PBS for 15 min at room temperature. The cells were washed with PBS containing 1% BSA, and then stained. […] Staining was carried out for 30 min at 4° C. After incubation with the detection reagent, cells were washed with PBS containing 1% BSA. The cells were finally resuspended in 200 μl PBS with 1% BSA and acquired using a BD FACSLyric flow cytometer system (BD Biosciences). Samples were analyzed using flowJo software (BD Biosciences).

[6] = biological target: T4, cynomolgus TfR1 (recombinant, construct not stated) (cynomolgus, UniProt H9EXL1 90-760 (rhesus entry)); assay: indirect ELISA of Fabs as for hTfR1, on cTfR1 (coating construct not stated), A450 [upper right panel cTfR1]
T4 construct: also called cTfR1; cynoTfR

[7] = biological target: T1, truncated hTfR1 of SEQ ID NO:86; assay: SPR, hTfR1 amine-coupled, scFv in bispecific format injected

B1: mAb158-Gen2D-h26D3 VH first (bispecific antibody, human IgG1, kappa)
heavy 1: not shown
heavy 2: not shown
light: DIVMTQAPLSLPVSLGDQASISCRSSQSIVHSNGNTYLEWYLQKPGQSPKLLIYKVSNRFSGVPDRFSGSGSGTDFTLKISRVEAEDLGIYYCFQGSHVPPTFGGGTKLEIKRTVAAPSVFIFPPSDEQLKSGTASVVCLLNNFYPREAKVQWKVDNALQSGNSQESVTEQDSKDSTYSLSSTLTLSKADYEKHKVYACEVTHQGLSSPVTKSFNRGEC
notes: Knob-into-hole antibody; also called Gen 2D construct, VH first
binding result [1]: binds
binding result [2]: binds

B2: mAb158-Gen2D-h26D3 VL first (bispecific antibody, human IgG1, kappa)
heavy 1: not shown
heavy 2: not shown
light: B1 light
notes: Knob-into-hole antibody; also called Gen 2D construct, VL first
binding result [3]: binds
EC50 (read off the curve) [4]: ~30 nM

B3: 2A-3 #8 (bispecific antibody, human IgG1, kappa)
heavy: not shown
chain: DIVMTQAPLSLPVSLGDQASISCRSSQSIVHSNGNTYLEWYLQKPGQSPKLLIYKVSNRFSGVPDRFSGSGSGTDFTLKISRVEAEDLGIYYCFQGSHVPPTFGGGTKLEIKRTVAAPSVFIFPPSDEQLKSGTASVVCLLNNFYPREAKVQWKVDNALQSGNSQESVTEQDSKDSTYSLSSTLTLSKADYEKHKVYACEVTHQGLSSPVTKSFNRGECGGGGSDIQMTQSPSSVSASVGDRVTITCKSSQSLLYSTNQKNYLAWYQQKPGKAPKLLIYWASTRESGVPSRFSGSGSGTDFTLTISSLQPEDFATYYCQQYFIYPRTFGQGTKVEIKGGGGSGGGGSGGGGSEVQLVQSGAEVKKPGSSVKVSCKASGYIFTDYNMDWVRQAPGQGLEWIGDINPDADTTSYNEKFKGRATLTVDKSTSTAYMELSSLRSEDTAVYYCARGGYSGSSYYHPMDYWGQGTLVTVSSGGGGSGGGGSGGGGSGGGGSDIVMTQAPLSLPVSLGDQASISCRSSQSIVHSNGNTYLEWYLQKPGQSPKLLIYKVSNRFSGVPDRFSGSGSGTDFTLKISRVEAEDLGIYYCFQGSHVPPTFGGGTKLEIKRTVAAPSVFIFPPSDEQLKSGTASVVCLLNNFYPREAKVQWKVDNALQSGNSQESVTEQDSKDSTYSLSSTLTLSKADYEKHKVYACEVTHQGLSSPVTKSFNRGEC
notes: also called Gen 2A construct #8; VL first
binding result [5]: binds

B4: h26D3-Fab (Fab, V domains shown)
VH: EVQLVQSGAEVKKPGSSVKVSCKASGYIFTDYNMDWVRQAPGQGLEWIGDINPDYDTTSYNEKFKGRATLTVDKSTSTAYMELSSLRSEDTAVYYCARGGYSGSSYYHPMDYWGQGTLVTVSS
VL: DIQMTQSPSSVSASVGDRVTITCKSSQSLLYSTNQKNYLAWYQQKPGKAPKLLIYWASTRESGVPSRFSGSGSGTDFTLTISSLQPEDFATYYCQQYFIYPRTFGQGTKVEIK
notes: His-tagged Fab from ExpiCHO; also called humanized 26D3 Fab
EC50 (read off the curve) [6]: ~1 nM

B5: bispecific binding molecule (format of WO2022/258841) comprising h26D3 HC6 scFv (bispecific antibody, V domains shown)
VH: B4 VH with Y55A
VL: B4 VL
Kd [7]: 100 to 200 nM

B6: bispecific binding molecule (format of WO2022/258841) comprising h26D3 LC5 scFv (bispecific antibody, V domains shown)
VH: B4 VH
VL: B4 VL with Y97A
Kd [7]: 400 to 500 nM

B7: bispecific binding molecule (format of WO2022/258841) comprising h26D3 LC1 scFv (bispecific antibody, V domains shown)
VH: B4 VH
VL: B4 VL with Y31A
Kd [7]: ~40 nM
